Experimental data taken from the supplement of paper PMC11316812.
± gives the standard deviation of the averaged measurements.

Legend:
[1] = system: hTERT-HMEC; assay: percentage of EdU-negative (G0-arrested) nuclei per well, 72 h; higher = more G0 arrest; conditions: reference: sequence is the full UniProt precursor, the tested protein was the secreted form or ectodomain
[2] = system: MCF7; assay: as above; conditions: reference: sequence is the full UniProt precursor, the tested protein was the secreted form or ectodomain
[3] = protein concentration 0.0225 µM
[4] = protein concentration 0.03125 µM
[5] = protein concentration 0.3125 µM
[6] = protein concentration 0.02535 µM
[7] = protein concentration 0.2535 µM
[8] = protein concentration 0.0260325 µM
[9] = protein concentration 0.260325 µM
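Further: secreted proteins added to cultured cells, EdU pulse at the end, nuclei found by Hoechst imaging, EdU status from nuclear versus surrounding ring intensity ratio, PBS as neutral control.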

Sequence | percentage of EdU-negative [1, 3] [%] | percentage of EdU-negative ([1]; protein concentration 0.225 µM) [%] | percentage of EdU-negative [2, 3] [%] | percentage of EdU-negative ([2]; protein concentration 0.225 µM) [%] | other results
MGFNLTFHLSYKFRLLLLLTLCLTVVGWATSNYFVGAIQEIPKAKEFMANFHKTLILGKGKTLTNEASTKKVELDNCPSVSPYLRGQSKLIFKPDLTLEEVQAENPKVSRGRYRPQECKALQRVAILVPHRNREKHLMYLLEHLHPFLQRQQLDYGIYVIHQAEGKKFNRAKLLNVGYLEALKEENWDCFIFHDVDLVPENDFNLYKCEEHPKHLVVGRNSTGYRLRYSGYFGGVTALSREQFFKVNGFSNNYWGWGGEDDDLRLRVELQRMKISRPLPEVGKYTMVFHTRDKGNEVNAERMKLLHQVSRVWRTDGLSSCSYKLVSVEHNPLYINITVDFWFGA | 5.14 ± 0.69 | 6.72 ± 0.53 | 25.1 ± 1.2 | 27.9 ± 0.9 | 
MGFQKFSPFLALSILVLLQAGSLHAAPFRSALESSPADPATLSEDEARLLLAALVQDYVQMKASELEQEQEREGSSLDSPRSKRCGNLSTCMLGTYTQDFNKFHTFPQTAIGVGAPGKKRDMSSDLERDHRPHVSMPQNAN |  |  |  |  | percentage of EdU-negative [1, 4]: 5.19 ± 0.42%; percentage of EdU-negative [1, 5]: 5.1 ± 0.19%; percentage of EdU-negative [2, 4]: 26.7 ± 2.5%; percentage of EdU-negative [2, 5]: 25.55 ± 0.19%
MGFWILAILTILMYSTAAKFSKQSWGLENEALIVRCPRQGKPSYTVDWYYSQTNKSIPTQERNRVFASGQLLKFLPAAVADSGIYTCIVRSPTFNRTGYANVTIYKKQSDCNVPDYLMYSTVSGSEKNSKIYCPTIDLYNWTAPLEWFKNCQALQGSRYRAHKSFLVIDNVMTEDAGDYTCKFIHNENGANYSVTATRSFTVKDEQGFSLFPVIGAPAQNEIKEVEIGKNANLTCSACFGKGTQFLAAVLWQLNGTKITDFGEPRIQQEEGQNQSFSNGLACLDMVLRIADVKEEDLLLQYDCLALNLHGLRRHTVRLSRKNPIDHHSIYCIIAVCSVFLMLINVLVIILKMFWIEATLLWRDIAKPYKTRNDGKLYDAYVVYPRNYKSSTDGASRVEHFVHQILPDVLENKCGYTLCIYGRDMLPGEDVVTAVETNIRKSRRHIFILTPQITHNKEFAYEQEVALHCALIQNDAKVILIEMEALSELDMLQAEALQDSLQHLMKVQGTIKWREDHIANKRSLNSKFWKHVRYQMPVPSKIPRKASSLTPLAAQKQ |  |  |  |  | percentage of EdU-negative [1, 6]: 5.463 ± 0.046%; percentage of EdU-negative [1, 7]: 5.2 ± 0.66%; percentage of EdU-negative [2, 6]: 23.7 ± 0.79%; percentage of EdU-negative [2, 7]: 25.9 ± 0.45%
MGGPRALLAALWALEAAGTAALRIGAFNIQSFGDSKVSDPACGSIIAKILAGYDLALVQEVRDPDLSAVSALMEQINSVSEHEYSFVSSQPLGRDQYKEMYLFVYRKDAVSVVDTYLYPDPEDVFSREPFVVKFSAPGTGERAPPLPSRRALTPPPLPAAAQNLVLIPLHAAPHQAVAEIDALYDVYLDVIDKWGTDDMLFLGDFNADCSYVRAQDWAAIRLRSSEVFKWLIPDSADTTVGNSDCAYDRIVACGARLRRSLKPQSATVHDFQEEFGLDQTQALAISDHFPVEVTLKFHR |  |  |  |  | percentage of EdU-negative [1, 8]: 4.97 ± 0.32%; percentage of EdU-negative [1, 9]: 5.04 ± 0.098%; percentage of EdU-negative [2, 8]: 25.9 ± 0.85%; percentage of EdU-negative [2, 9]: 23.9 ± 1.7%
MGGRVFLAFCVWLTLPGAETQDSRGCARWCPQNSSCVNATACRCNPGFSSFSEIITTPTETCDDINECATPSKVSCGKFSDCWNTEGSYDCVCSPGYEPVSGAKTFKNESENTCQDVDECQQNPRLCKSYGTCVNTLGSYTCQCLPGFKFIPEDPKVCTDVNECTSGQNPCHSSTHCLNNVGSYQCRCRPGWQPIPGSPNGPNNTVCEDVDECSSGQHQCDSSTVCFNTVGSYSCRCRPGWKPRHGIPNNQKDTVCEDMTFSTWTPPPGVHSQTLSRFFDKVQDLGRDSKTSSAEVTIQNVIKLVDELMEAPGDVEALAPPVRHLIATQLLSNLEDIMRILAKSLPKGPFTYISPSNTELTLMIQERGDKNVTMGQSSARMKLNWAVAAGAEDPGPAVAGILSIQNMTTLLANASLNLHSKKQAELEEIYESSIRGVQLRRLSAVNSIFLSHNNTKELNSPILFAFSHLESSDGEAGRDPPAKDVMPGPRQELLCAFWKSDSDRGGHWATEGCQVLGSKNGSTTCQCSHLSSFAILMAHYDVEDWKLTLITRVGLALSLFCLLLCILTFLLVRPIQGSRTTIHLHLCICLFVGSTIFLAGIENEGGQVGLRCRLVAGLLHYCFLAAFCWMSLEGLELYFLVVRVFQGQGLSTRWLCLIGYGVPLLIVGVSAAIYSKGYGRPRYCWLDFEQGFLWSFLGPVTFIILCNAVIFVTTVWKLTQKFSEINPDMKKLKKARALTITAIAQLFLLGCTWVFGLFIFDDRSLVLTYVFTILNCLQGAFLYLLHCLLNKKVREEYRKWACLVAGGSKYSEFTSTTSGTGHNQTRALRASESGI | 5.19 ± 0.7 | 5.66 ± 0.12 | 24.7 ± 1.8 | 26.3 ± 3.2 | 
MGHLSAPLHRVRVPWQGLLLTASLLTFWNPPTTAQLTTESMPFNVAEGKEVLLLVHNLPQQLFGYSWYKGERVDGNRQIVGYAIGTQQATPGPANSGRETIYPNASLLIQNVTQNDTGFYTLQVIKSDLVNEEATGQFHVYPELPKPSISSNNSNPVEDKDAVAFTCEPETQDTTYLWWINNQSLPVSPRLQLSNGNRTLTLLSVTRNDTGPYECEIQNPVSANRSDPVTLNVTYGPDTPTISPSDTYYRPGANLSLSCYAASNPPAQYSWLINGTFQQSTQELFIPNITVNNSGSYTCHANNSVTGCNRTTVKTIIVTELSPVVAKPQIKASKTTVTGDKDSVNLTCSTNDTGISIRWFFKNQSLPSSERMKLSQGNTTLSINPVKREDAGTYWCEVFNPISKNQSDPIMLNVNYNALPQENGLSPGAIAGIVIGVVALVALIAVALACFLHFGKTGRASDQRDLTEHKPSVSNHTQDHSNDPPNKMNEVTYSTLNFEAQQPTQPTSASPSLTATEIIYSEVKKQ | 5.04 ± 1.4 | 7.07 ± 0.44 | 24.7 ± 1.3 | 26.6 ± 0.95 | 
